Experimental findings from PMC9129000, “RADA-dependent branch migration has a predominant role in plant mitochondria and its defect leads to mtDNA instability and cell cycle arrest” are described below.

Data set [1] concerns the target Arabidopsis RADA recombinant protein (His-tagged, WT) (Arabidopsis thaliana). The experiment in a line: dynamic light scattering; protein fraction of gel filtration peak 2 (the smaller oligomer). (In general: In gel filtration, larger molecules generally elute earlier.)
Data set [2] deals with T1, RADA (Arabidopsis thaliana, UniProt F4K8X8 49-627).
T1 sequence: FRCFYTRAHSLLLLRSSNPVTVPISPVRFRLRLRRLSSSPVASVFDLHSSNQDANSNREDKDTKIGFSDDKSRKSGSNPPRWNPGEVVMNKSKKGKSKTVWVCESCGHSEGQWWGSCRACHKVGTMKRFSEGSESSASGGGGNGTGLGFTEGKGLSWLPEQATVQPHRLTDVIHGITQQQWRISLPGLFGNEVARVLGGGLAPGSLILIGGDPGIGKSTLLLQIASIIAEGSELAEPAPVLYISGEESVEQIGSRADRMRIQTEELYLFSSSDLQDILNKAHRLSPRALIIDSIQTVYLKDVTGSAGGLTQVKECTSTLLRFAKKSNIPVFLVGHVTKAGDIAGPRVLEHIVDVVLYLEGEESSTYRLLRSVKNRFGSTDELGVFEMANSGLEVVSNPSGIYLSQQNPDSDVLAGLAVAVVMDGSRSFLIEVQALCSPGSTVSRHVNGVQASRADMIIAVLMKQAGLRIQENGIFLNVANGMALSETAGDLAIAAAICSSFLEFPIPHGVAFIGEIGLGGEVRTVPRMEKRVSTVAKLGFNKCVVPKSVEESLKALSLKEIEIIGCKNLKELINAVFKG
Put plainly: competition; competes as efficiently as homologous 30-mer; 20 mM Tris-HCl pH 7.5, 50 mM KCl, 5 mM MgCl2, 0.5 mM EDTA, 10% glycerol, 1 mM DTT, protease inhibitors; 20 C, 20 min; 8 or 4.5% PAGE in TBE at 4 C. The note with it: protein: recombinant; tags: N-terminal His (pET28a); chain copies: 6; single strand.

For data set [3], the target named is T1, RADA. Put plainly: EMSA; probe and homologous competitor; 20 mM Tris-HCl pH 7.5, 50 mM KCl, 5 mM MgCl2, 0.5 mM EDTA, 10% glycerol, 1 mM DTT, protease inhibitors; 20 C, 20 min; 8 or 4.5% PAGE in TBE at 4 C. The conditions noted are these: protein: recombinant; tags: N-terminal His (pET28a); chain copies: 6; label: 5'-32P as probe; single strand. For orientation: A gel shift assay detects complexes by their altered migration in electrophoresis.

Data set [4] has as its target T1, RADA. Put plainly: EMSA; 20 mM Tris-HCl pH 7.5, 50 mM KCl, 5 mM MgCl2, 0.5 mM EDTA, 10% glycerol, 1 mM DTT, protease inhibitors; 20 C, 20 min; 8 or 4.5% PAGE in TBE at 4 C. The note with it: protein: recombinant; tags: N-terminal His (pET28a); chain copies: 6; label: 5'-32P; single strand.

The stoichiometry N is a count of units in the complex or per binding partner. As to “Arabidopsis RADA recombinant protein (His-tagged, WT) (enzyme)”, the stoichiometry N in data set [1] was determined as 6.

For TTTTTTTTTTTTTTTTTTTTTTTTTTTTTT (ssDNA) [poly-dT 30-mer], the binding result with RADA [2] was “binds”.

Consider AGTCAGTCAGTCAGTCAGTCAGTCAGTCAG (ssDNA) [EMSA 30-mer 7x[AGTC]AG], for which the binding result in the data set with RADA [3] was “binds”.

B1: EMSA ssDNA (ssDNA)
DNA: GACGCTGCCGAATTCTACCAGTGCCTTGCTAGGACATCTTTGCCCACCTGCAGGTTCACCC
In the case of B1, the binding result in the data set with RADA [4] was “binds”.
